Results published in patent US10487307B2, “Culture method for pluripotent stem cells” (FUJIFILM CORPORATION, priority 2013, dated 2019).

B1: RCP-11: recombinant polypeptide for culture, SEQ ID NO: 25; vitronectin positions 1-55, 269-277, 295-341, 342-373, C274S (protein)
chain: MDQESCKGRCTEGFNVDKKCQCDELCSYYQSCCTDYTAECKPQVTRGDVFTMPEDESQEESEGSEDIFELLFWGRTSAGTRQPQFISRDWHGVPGQVDAAMAGRIYISGMAPRPSLAKKQRFRHRNRKGYRSQRGHSRGRNQN
modifications: Vitronectin-derived Recombinant Protein (RCP-11)
notes: vitronectin positions 1-55, 269-277, 295-341, 342-373, C274S
B2: RCP-5: recombinant polypeptide for culture, SEQ ID NO: 19; vitronectin positions 1-55, 302-341, 342-373 (protein)
chain: MDQESCKGRCTEGFNVDKKCQCDELCSYYQSCCTDYTAECKPQVTRGDVFTMPEDEFWGRTSAGTRQPQFISRDWHGVPGQVDAAMAGRIYISGMAPRPSLAKKQRFRHRNRKGYRSQRGHSRGRNQN
modifications: Vitronectin-derived Recombinant Protein (RCP-5)

How the values were obtained:
[1] = system: human iPS cells ("Tic"); experiment: Cell growth property evaluation 1 (different media); type: cell-based; conditions: for cell growth properties with Essential 8 or NutriStem not containing 2-mercaptoethanol versus media containing it: Table 11; for Cell growth rate: polypeptide 100 μg/ml, 72 hours, RCP-11 with Essential 8 = 100%, n=3
Procedure: Furthermore, for evaluation, human iPS cells (“Tic”) that were retention-cultured as described in <Cell adhesiveness evaluation 1> of reference example were treated with TrypLE Select (Invitrogen) for 5 minutes at 37° C. and separated into a single cell. After being subjected to centrifugation for 2 minutes at 300 rpm, the cells were collected, suspended in each medium, and used for the evaluation in each example. Herein, Y-27362 ((R)-(+)-trans-N-(4-pyridyl)-4-(1-aminoethyl)-cyclohexane carboxamide.2HCl.H2O, an Rho binding kinase inhibitor, Wako Pure Chemical Industries, Ltd.) was added to all of the media at a final concentration of 10 μM.
Each of RCP-11, RCP-5, and recombinant laminin (Human Recombinant Laminin-511: BIOLAMINA AB) as control was added to and suspended in a predetermined buffer (a dialysis buffer used in <GRAVY value and aggregation characteristics> of reference examples for RCP-11 and RCP-5, and PBS for the recombinant laminin) at the final concentration shown in Table 11, thereby preparing polypeptide solutions. The polypeptide solutions were added to the respective wells of a plasma-treated 96-well plate made of polystyrene (BD Falcon) having a plasma-treated cell culture surface and held as they were so as to be adsorbed onto the plate for 2 hours at 37° C. In this way, a peptide-treated 96-well plate having a polypeptide-coated surface was obtained. The iPS cells suspended in the respective media shown in Table 11 were seeded into the respective wells of the obtained peptide-treated 96-well plate at a cell density of 10,000 cells/well. After the cells were cultured for 72 hours, nonadhesive cells were washed off with PBS, and only adhesive cells were immobilized using 4% by mass of paraformaldehyde (Wako Pure Chemical Industries, Ltd.). By using an Attophos (registered trademark) AP Fluorescent Substrate System (Promega Corporation), the ALP activity was calculated, and from the calibration curve, the number of undifferentiated iPS cells having the ALP activity was calculated. In Table 11, the cell adhesion rate is expressed as a ratio calculated by regarding the number of pluripotent stem cells after the culture for 72 hours in a combination of RCP-11 and Essential 8 as being 100%. n=3.
In Table 11, “% by mass” in the concentration of 2-meracptoethanol is a proportion (w/v %) of mass (g) of 2-meracptoethanol per 100 mL of the total volume of the medium at the time of culture.

[2] = Evaluation 1 about amount of residual polypeptide adsorbed (ELISA, media); type: physicochemical; conditions: for Residual rate of polypeptide (%): four days after the starting of culture, amount adsorbed immediately after start = 100, coated at 100 μg/ml; for residual rate of adsorbed polypeptide, medium not containing versus containing 2-mercaptoethanol: FIGS. 5 and 6 and Table 13
Procedure: RCP-11 and RCP-5 were prepared by using a predetermined buffer (the dialysis buffer used in <GRAVY value and aggregation characteristics> of reference examples) such that their concentration became 100 μg/ml. The polypeptides were added to the respective wells of a plasma-treated 96-well plate made of polystyrene having a plasma-treated cell culture surface and held as they were for 2 hours at 37° C. so as to be adsorbed onto the plate, thereby obtaining a polypeptide-coated surface. After the wells were washed with PBS, the respective media were added thereto, followed by incubation at 37° C. for a predetermined time. The wells were washed with PBS, and then 20% by mass of an immunoblocking solution (DS Pharma Biomedical Co., Ltd.) was added thereto, followed by incubation for 30 minutes at 37° C., thereby performing a blocking treatment. After the wells were washed with PBS-T (PBS containing 0.05% by mass of Tween-20), 5% by mass of an immunoblocking solution (DS Pharma Biomedical Co., Ltd.) containing an anti-human vitronectin antibody (Thermo Fisher Scientific Inc.) was added thereto, followed by incubation for 2 hours at room temperature. After the wells were washed with PBS-T, a 5% by mass of immunoblocking solution (DS Pharma Biomedical Co., Ltd.) containing an HRP-labeled anti-IgG antibody (Thermo Fisher Scientific Inc.) was added thereto, followed by incubation for 1 hour at room temperature. After the wells were washed with PBS-T, a TMB Substrate (Wako Pure Chemical Industries, Ltd.) was added thereto for developing color, and then 1 N hydrochloric acid was added thereto to stop the color reaction. By using a plate reader, the absorbance was measured, and the amount of the residual RCP-11 and RCP-5 was determined (absorption wavelength: 450 nm, control wavelength: 650 nm).
In Table 13, the residual rate of RCP-11 and RCP-5 is expressed as a ratio (%) calculated by regarding the amount of the polypeptides adsorbed immediately after the starting of culture as being 100.

[3] = system: iPS cells; experiment: Example 6: evaluation of undifferentiated state maintainability (10 passages); type: cell-based, human; conditions: for shape of iPS cells after 10 passages: Essential 8 and NutriStem not containing 2-mercaptoethanol, FIGS. 8A to 8D
Procedure: iPS cells were seeded onto cell culture surfaces coated with RCP-11 and RCP-5 and cultured in Essential 8. Every five to seven days after seeding, cell culture surfaces coated with RCP-11 and RCP-5 were newly prepared. The iPS cells were treated with TryPLE Select, separated into a single cell, and then collected. Thereafter, the iPS cells were subcultured by being seeded onto the newly prepared cell culture surfaces coated with RCP-11 and RCP-5. Under the conditions described above, the cells were cultured for 10 passages.
The iPS cells cultured for 10 passages on the RCP-11-coated surface were immobilized using 4 v/v % paraformaldehyde, and the membrane permeability was enhanced by using 1% by mass of Triton-X/PBS. After the cells were subjected to a blocking treatment using an Image IT Signal Enhancer (Invitrogen), an anti-NANOG antibody (AF 1997, R&D Systems, Inc.), an anti-OCT 3/4 antibody, an anti-SSEA-3 antibody, an anti-S SEA-4 antibody, a anti-Tra-1-60 antibody, and an anti-Tra-1-81 antibody (Stemcell Technologies Inc), an Alexa Fluor 555 binding rabbit anti-goat IgG antibody (Invitrogen), an FITC binding goat anti-mouse IgM antibody (Stemcell Technologies Inc), and DAPI (Dojindo Molecular Technologies, Inc.) were added thereto for labeling, and the cells were imaged using a fluorescence microscope.
In FIGS. 8A to 8D, the images on the left side are full images of the colony, and the images on the right side are magnified images. The scale bar in FIGS. 8A to 8D indicates 500 μm.
In FIGS. 9A to 9F, each of the images of stained cells is an image of stained iPS cells cultured on the RCP-11-coated surface by using Essential 8. The images on the left side are images of the cells stained with DAPI, and the images on the right side are images of the cells stained with NANOG (FIG. 9A), OCT 3/4 (FIG. 9B), SSEA-3 (FIG. 9C), SSEA-4 (FIG. 9D), Tra-1-60 (FIG. 9E), and Tra-1-81 (FIG. 9F). The scale bar in FIGS. 9A to 9F indicates […].

[4] = medium Essential8, 2-mercaptoethanol 0, 10,000 cells/well
[5] = medium NutriStem, 2-mercaptoethanol 0
[6] = medium ReproFF2, 2-mercaptoethanol 102.4 μM (0.0008% by mass)
[7] = medium StemPro hESC SFM, 2-mercaptoethanol 100 μM (0.00078% by mass)
[8] = medium TeSR2, 2-mercaptoethanol 48.6 μM (0.00038% by mass)

Molecule	cell growth properties with Essential 8 or NutriStem not containing 2-mercaptoethanol versus media containing it [1]	Cell growth rate [1, 4] [%]	Cell growth rate [1, 5] [%]	Cell growth rate [1, 6] [%]	Cell growth rate [1, 7] [%]	Cell growth rate [1, 8] [%]	Residual rate of polypeptide (%) ([2]; Essential8)	residual rate of adsorbed polypeptide, medium not containing versus containing 2-mercaptoethanol [2]	Residual rate of polypeptide (%) ([2]; NutriStem)	Residual rate of polypeptide (%) ([2]; ReproFF2)	Residual rate of polypeptide (%) ([2]; Stempro hESC SFM)	Residual rate of polypeptide (%) ([2]; TeSR2)	expression of markers specific to undifferentiated cells ([3]; Essential 8, 10 passages, immunostaining, FIGS. 9A to 9F)	shape of iPS cells after 10 passages [3]
B1	better	100	129.1	84.7	13.6	71.8	71.8	decreases further with the passage of time	63.5	42.0	29.4	49.9	expressed NANOG, OCT 3/4, SSEA-3, SSEA-4, Tra-1-60, and Tra-1-81	shape specific to undifferentiated cells
B2	better	84.4	123	70.3	20.1	54.4	65.6	decreases further with the passage of time	62.5	42.1	35.3	44.0	–	shape specific to undifferentiated cells
